Substrate in this data set: NC1(C(=O)O)CC1
The data set is described as follows: two-electrode voltage clamp, inward current in Xenopus oocytes. Type of data set: cell-based, Arabidopsis thaliana. Particulars: pH 5.6, -80 mV, room temperature, Michaelis-Menten fit.

B1: LHT2 (Arabidopsis thaliana) (protein)
chain: MGNSEMSASEVAAAKQKNVDDWLPITSSRNAKWWYSAFHNVTAMVGAGVLSLPYAMSNLGWGPGVTIMVMSWIITLYTLWQMVEMHEIVPGKRLDRYHELGQHAFGEKLGLWIVVPQQLIVEVGVDIVYMVTGGASLKKVHQLVCPDCKEIRTTFWIMIFASVHFVISHLPNFNSISIISLAAAVMSLTYSTIAWAASVHKGVHPDVDYSPRASTDVGKVFNFLNALGDVAFAYAGHNVVLEIQATIPSTPEMPSKVPMWRGVIVAYIVVAICYFPVAFLGYYIFGNSVDDNILITLEKPIWLIAMANMFVVIHVIGSYQIFAMPVFDMLETVLVKKMNFNPSFKLRFITRSLYVAFTMIVAICVPFFGGLLGFFGGFAFAPTTYYLPCIMWLVLKKPKRFGLSWTANWFCIIVGVLLTILAPIGGLRTIIINAKTYKFFS
notes: cDNA in pGEM-HE, cRNA injected into Xenopus laevis oocytes
Regarding B1, the K0.5 came out at 59.1 ± 6.6 mM.

B2: LHT1 (Arabidopsis thaliana) (protein)
chain: MVAQAPHDDHQDDEKLAAARQKEIEDWLPITSSRNAKWWYSAFHNVTAMVGAGVLGLPYAMSQLGWGPGIAVLVLSWVITLYTLWQMVEMHEMVPGKRFDRYHELGQHAFGEKLGLYIVVPQQLIVEIGVCIVYMVTGGKSLKKFHELVCDDCKPIKLTYFIMIFASVHFVLSHLPNFNSISGVSLAAAVMSLSYSTIAWASSASKGVQEDVQYGYKAKTTAGTVFNFFSGLGDVAFAYAGHNVVLEIQATIPSTPEKPSKGPMWRGVIVAYIVVALCYFPVALVGYYIFGNGVEDNILMSLKKPAWLIATANIFVVIHVIGSYQIYAMPVFDMMETLLVKKLNFRPTTTLRFFVRNFYVAATMFVGMTFPFFGGLLAFFGGFAFAPTTYFLPCVIWLAIYKPKKYSLSWWANWVCIVFGLFLMVLSPIGGLRTIVIQAKGYKFYS
notes: as for B1
With B2, the K0.5 is 60.9 ± 8.2 mM.

The values above are taken from article PMC6749071, “Identification of Lysine Histidine Transporter 2 as an 1-Aminocyclopropane Carboxylic Acid Transporter in Arabidopsis thaliana by Transgenic Complementation Approach” (Frontiers in Plant Science, 2019).
